Measured values as given in paper PMC9398005.

What was measured:
[1] = target: Drosophila Su(H) K132M (98-523) (Drosophila) (UniProt P28159); assay: ITC; RAM peptide, Hairless or SHARP in the syringe, Su(H) or Rbpj in the cell; 50 mM sodium phosphate, 150 mM sodium chloride; 20 injections of 14 uL; triplicate; one site binding model; 20°C by the methods, 25°C by the legend of Fig 6
[2] = target: Drosophila Su(H) E137V (98-523) (Drosophila) (UniProt P28159); assay: as above
[3] = target: Drosophila Su(H) WT (98-523) (Drosophila) (UniProt P28159); assay: as above
[4] = target: Drosophila Su(H) (98-523) WT (Drosophila) (UniProt P28159); assay: ITC; cofactor (RAM peptide, Hairless or SHARP) in the syringe, Su(H) or Rbpj in the cell; 50 mM sodium phosphate, 150 mM sodium chloride; 20 injections, triplicate, one site model; 25°C by the legend, 20°C by the methods

Ka [1]: 1.2e+07 M⁻¹ | Ka [2]: 6.5e+06 M⁻¹ | Ka [3]: 5.4e+06 M⁻¹ | Kd [3]: 187 nM | Kd [4]: 187 nM
Binder: VLSTQRKRAHGVTWFPEGFRAPAAVMSR [Drosophila Notch RAM peptide (residues 1763-1790)]
